# Measured values: publication PMC2763920 (Electrophoresis, 2009)
# “And” between values parts separate entries of the source, which are not always exact repeats. Equal values may be shown once. Square brackets hold non-standard residues; d marks the D form. Ends that are not written are not given here. pY = N[C@@H](Cc1ccc(OP(=O)(O)O)cc1)C(=O)O
# Assays:
# GST-Fyn-SH3-SH2 [1] = target: T1, GST-Fyn-SH3-SH2 (fluorescein on the N-terminus; phosphotyrosine (pY) at position 7 of the printed letters); test: fluorescence polarisation
# GST-Fyn-SH3-SH2 [2] = target: T1, GST-Fyn-SH3-SH2; test: high-speed capillary electrophoresis
# GST-Fyn-SH3-SH2 [3] = target: T1, GST-Fyn-SH3-SH2; test: high-speed capillary electrophoresis; remark: listed apart in the source
binder,measurement,setting,value
fluorescein-EEEEPQ[pY]EEIPIYL [Fluor-Fyn peptide (fluorescein-EEEEPQpYEEIPIYL)],"t1/2, two component decay, first component",GST-Fyn-SH3-SH2 [1],3.3 s
same,"t1/2, two component decay, second component",GST-Fyn-SH3-SH2 [1],59.5 s
same,"t1/2 of the complex, single exponential decay",GST-Fyn-SH3-SH2 [1],21.2 ± 1.3 s
same,t1/2 of complex 1,GST-Fyn-SH3-SH2 [2],22 s
same,t1/2 of complex 2,GST-Fyn-SH3-SH2 [2],58.8 s
same,stoichiometry N,GST-Fyn-SH3-SH2 [3],"0.5 peptide per protein (printed 2:1 protein: peptide, complex 1) and 1 peptide per protein (printed 2:2 protein: peptide, complex 2)"
